What was measured:
[1] = target: HCoV-229E Spike antigen (HCoV-229E) (UniProt P15423); test: […], PBS running buffer; […]
[2] = target: soluble SARS-CoV-2 Spike (S) (SARS-CoV-2); test: […], PBS running buffer; […]

“HCoV-229E Spike antigen (from UniProt P15423 16-1173) (natural protein)” showed a stoichiometry N [1] of 3.
For “soluble SARS-CoV-2 Spike (S) (domain or fragment)”, the stoichiometry N [2] was 3.
